Assay results as given in patent US20220195064A1 (Memorial Sloan Kettering, published 2022).

Tests used:
[1] = molecular target: T1, recombinant extracellular domain of murine CD371 (Thr 67-Arg 267) with polyhistidine tag (murine, UniProt Q504P2 67-267); assay: phage ELISA, anti-M13 detection
T1 construct: range 67-267; also called mouse homolog of CD371; not shown: polyhistidine tag
T1 sequence (looked up): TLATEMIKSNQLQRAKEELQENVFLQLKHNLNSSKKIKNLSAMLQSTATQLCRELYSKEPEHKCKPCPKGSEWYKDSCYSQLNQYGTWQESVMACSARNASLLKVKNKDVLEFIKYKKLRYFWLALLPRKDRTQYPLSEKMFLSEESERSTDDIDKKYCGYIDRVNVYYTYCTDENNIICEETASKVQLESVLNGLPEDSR
Procedure: (§1) A proprietary naïve, semi-synthetic scFv phage display library was screened for antibodies that bind to the CD371 protein by using standard solid phase phage display panning techniques. Briefly, recombinant CD371 was immobilized on a polystyrene surface followed by blocking with about 5% milk and incubation with the phage library. Subsequent washing, elution and phage amplification steps were performed to complete each round of biopanning. Three rounds of panning were completed using amplified CD371 binder-enriched phage pools from the previous round of panning as input for subsequent rounds.

[2] = molecular target: T2, human CD371 on the cell surface (OCI AML cells; HEK293 cells expressing human CD371) (human, UniProt Q5QGZ9 1-265); assay: flow cytometry of monoclonal phage prep on HEK293H cells transfected with human CD371 against wild type HEK293H; detection by anti-M13 mAb and PE anti-mouse
T2 construct: whole, on cells; The transfected construct is not specified further; also called CD371 cells; CD371+ AML cell line OCI
T2 sequence (looked up): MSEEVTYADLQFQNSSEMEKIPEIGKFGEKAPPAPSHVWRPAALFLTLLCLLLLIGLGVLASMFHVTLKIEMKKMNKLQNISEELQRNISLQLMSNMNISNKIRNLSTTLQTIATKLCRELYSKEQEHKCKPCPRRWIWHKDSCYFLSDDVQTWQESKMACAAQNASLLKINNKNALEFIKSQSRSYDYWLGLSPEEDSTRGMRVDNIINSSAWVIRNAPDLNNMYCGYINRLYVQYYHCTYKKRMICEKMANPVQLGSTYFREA
Procedure: Once selected, positive scFv clones are tested for their binding to CD371 (e.g., human CD371) on cell surfaces by flow cytometry. Briefly, phage clones are incubated with HEK293H cells over-expressing CD371. The cells are washed and then incubated with a M13 coat protein mAb. Cells are washed again and labeled with a PE-labeled anti-mouse Fab₂ prior to flow cytometry.

[3] = molecular target: T3, recombinant soluble human CD371 extracellular domain (His 65-Ala 265) with polyhistidine tag (human, UniProt Q5QGZ9 65-265, biotinylated in the scFv BLI measurements (site not stated)); assay: phage ELISA on human CD371, anti-M13 detection
T3 construct: range 65-265; also called soluble CD371; recombinant CD371; not shown: polyhistidine tag
T3 sequence (looked up): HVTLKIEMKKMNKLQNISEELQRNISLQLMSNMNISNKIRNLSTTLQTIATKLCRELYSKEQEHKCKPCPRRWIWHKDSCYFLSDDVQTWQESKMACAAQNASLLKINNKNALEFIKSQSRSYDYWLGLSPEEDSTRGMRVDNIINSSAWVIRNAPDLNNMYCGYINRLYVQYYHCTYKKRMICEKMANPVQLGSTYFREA
Procedure: as §1

[4] = molecular target: T3, recombinant soluble human CD371 …; assay: BLI, Fc fusion captured with anti-Fc antibody, soluble CD371 as analyte
Excerpt: (§2) Affinity measurements of the B10 variants determined by biolayer interferometry by capturing the IgG and Fc fusions with anti-Fc antibody, and using soluble CD371 as analyte. For scFv affinity measurements, biotinylated CD371 was captured with streptavidin, and soluble scFv was used as analyte. […] Consistent with the flow cytometry results, the full IgG and the scFv-Fc fusions bound more strongly than the scFvs (Table 8), presumably due to their bivalent interaction, resulting in an avidity effect. Weak binding of the 1B10 scFv in the VH-VL Orientation was observed but a dissociation constant could not be calculated by any curve fit method.

[5] = molecular target: T3, recombinant soluble human CD371 …; assay: BLI, biotinylated CD371 captured with streptavidin, soluble scFv as analyte
Excerpt: as §2

[6] = molecular target: T3, recombinant soluble human CD371 …; assay: BLI, IgG captured with anti-Fc antibody, soluble CD371 as analyte
Excerpt: as §2

B1: B031_P1_PH1D6 monoclonal phage prep (scFv displayed on phage) (scFv, V domains shown)
VH: EVQLLESGGGLVQPGGSLRLSCAASGFTFTDYAMSWVRQAPGKGLEWVSDIDGSGGSTDYADSVKGRFTISRDNSKNTLYLQMNSLRAEDTAVYYCALELGATTVYWGQGTLVTVSS
VL: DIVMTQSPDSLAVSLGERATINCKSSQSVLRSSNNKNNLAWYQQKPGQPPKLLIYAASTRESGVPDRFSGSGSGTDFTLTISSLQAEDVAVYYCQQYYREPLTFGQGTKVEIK
notes: Tested as an scFv on M13 phage
B1: no binding [1]; binds [2]; binds [3].

B2: B031_P1_PH2E4 monoclonal phage prep (scFv displayed on phage) (scFv, V domains shown)
VH: EVQLLESGGGLVQPGGSLRLSCAASGFTFTSYYMSWVRQAPGKGLEWVSGISGSGDSTSYADSVKGRFTISRDNSKNTLYLQMNSLRAEDTAVYYCAREAGGDYDSGAFDIWGQGTMVTVSS
VL: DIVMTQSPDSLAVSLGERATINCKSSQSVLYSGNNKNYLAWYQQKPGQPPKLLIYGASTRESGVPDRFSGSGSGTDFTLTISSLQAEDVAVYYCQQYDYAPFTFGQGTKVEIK
notes: as for B1
B2: no binding [1]; binds [3].

B3: B031_P1_PH1C3 monoclonal phage prep (scFv displayed on phage) (scFv, V domains shown)
VH: EVQLLESGGGLVQPGGSLRLSCAASGFTFTSYAMSWVRQAPGKGLEWVSGIDGSGGGTNYADSVKGRFTISRDNSKNTLYLQMNSLRAEDTAVYYCARAYYDILTGYPVDGMDVWGQGTTVTVSS
VL: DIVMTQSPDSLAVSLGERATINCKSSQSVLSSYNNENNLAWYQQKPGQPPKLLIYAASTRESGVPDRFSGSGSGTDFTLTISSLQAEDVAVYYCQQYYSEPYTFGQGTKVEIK
notes: as for B1
B3: no binding [1].

B4: B10 scFv-Fc fusion, VL-VH orientation (Fc fusion)
chain: DIVMTQSPDSLAVSLGERATINCKSSQSVLDSYNNENNLAWYQQKPGQPPKLLIYWASTRESGVPDRFSGSGSGTDFTLTISSLQAEDVAVYYCQQYTSEPITFGQGTKVEIKGGGGSGGGGSGGGSGGGGSEVQLLESGGGLVQPGGSLRLSCAASGFTFSDYQMSWVRQAPGKGLEWVSGIQGGGGSTYYADSVKGRFTISRDNSKNTLYLQMNSLRAEDTAVYYCAREMWRGDYYSGMDVWGQGTTVTVSS
notes: also called VL-VH-Fc; not shown: Fc region
Work on B4 yielded a Kd [4] of 7 nM, a koff [4] of 0.00206 s⁻¹ and a kon [4] of 295000 M⁻¹ s⁻¹.

B5: B10 scFv in the VL-VH orientation (scFv)
scFv: DIVMTQSPDSLAVSLGERATINCKSSQSVLDSYNNENNLAWYQQKPGQPPKLLIYWASTRESGVPDRFSGSGSGTDFTLTISSLQAEDVAVYYCQQYTSEPITFGQGTKVEIKGGGGSGGGGSGGGSGGGGSEVQLLESGGGLVQPGGSLRLSCAASGFTFSDYQMSWVRQAPGKGLEWVSGIQGGGGSTYYADSVKGRFTISRDNSKNTLYLQMNSLRAEDTAVYYCAREMWRGDYYSGMDVWGQGTTVTVSS
notes: Soluble scFv; also called VL-VH scFv; 1B10 scFv VL-VH
Work on B5 yielded a Kd [5] of 16 nM, a koff [5] of 0.00952 s⁻¹ and a kon [5] of 599000 M⁻¹ s⁻¹.

B6: B031_P1_PH2E8 monoclonal phage prep (scFv displayed on phage) (scFv, V domains shown)
VH: EVQLLESGGGLVQPGGSLRLSCAASGFTFSSYAMSWVRQAPGKGLEWVSEIDGEGGYTNYADSVKGRFTISRDNSKNTLYLQMNSLRAEDTAVYYCAREGVDYDILTGYYPYGMDVWGQGTTVTVSS
VL: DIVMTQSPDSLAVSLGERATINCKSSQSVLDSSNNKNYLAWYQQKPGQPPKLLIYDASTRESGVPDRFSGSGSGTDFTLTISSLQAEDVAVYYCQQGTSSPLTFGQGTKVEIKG
notes: as for B1
B6: no binding [1].

B7: B10 scFv-Fc fusion, VH-VL orientation (Fc fusion)
chain: EVQLLESGGGLVQPGGSLRLSCAASGFTFSDYQMSWVRQAPGKGLEWVSGIQGGGGSTYYADSVKGRFTISRDNSKNTLYLQMNSLRAEDTAVYYCAREMWRGDYYSGMDVWGQGTTVTVSSGGGGSGGGGSGGGSGGGGSDIVMTQSPDSLAVSLGERATINCKSSQSVLDSYNNENNLAWYQQKPGQPPKLLIYWASTRESGVPDRFSGSGSGTDFTLTISSLQAEDVAVYYCQQYTSEPITFGQGTKVEIK
notes: also called VH-VL-Fc; not shown: Fc region
Binder B7 has a Kd [4] of 4.2 nM, a koff [4] of 0.000968 s⁻¹ and a kon [4] of 232000 M⁻¹ s⁻¹.

B8: B031_P1_PH2A11 monoclonal phage prep (scFv displayed on phage) (scFv, V domains shown)
VH: EVQLLESGGGLVQPGGSLRLSCAASGFTFTSTQMSWVRQAPGKGLEWVSEISGYGGSTYYADSVKGRFTISRDNSKNTLYLQMNSLRAEDTAVYYCAKDTEVSGDAFDIWGQGTMVTVSS
VL: EIVLTQSPGTLSLSPGERATLSCRASQSVDSSNLAWYQQKPGQAPRLLIYGASSRATGIPDRFSGSGSGTDFTLTISRLEPEDFAVYYCQQYRSWPITFGQGTKVEIK
notes: as for B1
B8: no binding [1]; binds [3].

B9: B10 reformatted to human IgG1 (antibody, V domains shown)
VH: EVQLLESGGGLVQPGGSLRLSCAASGFTFSDYQMSWVRQAPGKGLEWVSGIQGGGGSTYYADSVKGRFTISRDNSKNTLYLQMNSLRAEDTAVYYCAREMWRGDYYSGMDVWGQGTTVTVSS
VL: not shown
notes: Human IgG1; also called 1B10 IgG1; B031_P1_PH1B10 IgG1
B9 showed a Kd [6] of 9.5 nM, a koff [6] of 0.00153 s⁻¹ and a kon [6] of 160000 M⁻¹ s⁻¹.

B10: B031_P1_PH1B10 monoclonal phage prep (scFv displayed on phage) (scFv, V domains shown)
VH: EVQLLESGGGLVQPGGSLRLSCAASGFTFSDYQMSWVRQAPGKGLEWVSGIQGGGGSTYYADSVKGRFTISRDNSKNTLYLQMNSLRAEDTAVYYCAREMWRGDYYSGMDVWGQGTTVTVSS
VL: not shown
notes: Tested as an scFv on M13 phage (supernatant or phage prep)
B10: no binding [1].
